Measurements as given in publication PMC8298264, “Function of cofactor Akirin2 in the regulation of gene expression in model human neutrophil-like HL60 cells” (Bioscience Reports, 2021).

B1: sp¦Q6NVY1¦HIBCH_HUMAN (protein, UniProt Q6NVY1 33-386, looked up)
3-hydroxyisobutyryl-CoA …: DAAEEVLLEKKGCTGVITLNRPKFLNALTLNMIRQIYPQLKKWEQDPETFLIIIKGAGGKAFCAGGDIRVISEAEKAKQKIAPVFFREEYMLNNAVGSCQKPYVALIHGITMGGGVGLSVHGQFRVATEKCLFAMPETAIGLFPDVGGGYFLPRLQGKLGYFLALTGFRLKGRDVYRAGIATHFVDSEKLAMLEEDLLALKSPSKENIASVLENYHTESKIDRDKSFILEEHMDKINSCFSANTVEEIIENLQQDGSSFALEQLKVINKMSPTSLKITLRQLMEGSSKTLQEVLTMEYRLSQACMRGHDFHEGVRAVLIDKDQSPKWKPADLKEVTEEDLNNHFKSLGSSDLKF
B2: sp¦P22087¦FBRL_HUMAN (protein, UniProt P22087 1-321, looked up)
rRNA 2'-O-methyltransferase …: MKPGFSPRGGGFGGRGGFGDRGGRGGRGGFGGGRGRGGGFRGRGRGGGGGGGGGGGGGRGGGGFHSGGNRGRGRGGKRGNQSGKNVMVEPHRHEGVFICRGKEDALVTKNLVPGESVYGEKRVSISEGDDKIEYRAWNPFRSKLAAAILGGVDQIHIKPGAKVLYLGAASGTTVSHVSDIVGPDGLVYAVEFSHRSGRDLINLAKKRTNIIPVIEDARHPHKYRMLIAMVDVIFADVAQPDQTRIVALNAHTFLRNGGHFVISIKANCIDSTASAEAVFASEVKKMQQENMKPQEQLTLEPYERDHAVVVGVYRPPPKVKN
B3: sp¦P13804¦ETFA_HUMAN (protein, UniProt P13804 20-333, looked up)
Electron transfer …: QSTLVIAEHANDSLAPITLNTITAATRLGGEVSCLVAGTKCDKVAQDLCKVAGIAKVLVAQHDVYKGLLPEELTPLILATQKQFNYTHICAGASAFGKNLLPRVAAKLEVAPISDIIAIKSPDTFVRTIYAGNALCTVKCDEKVKVFSVRGTSFDAAATSGGSASSEKASSTSPVEISEWLDQKLTKSDRPELTGAKVVVSGGRGLKSGENFKLLYDLADQLHAAVGASRAAVDAGFVPNDMQVGQTGKIVAPELYIAVGISGAIQHLAGMKDSKTIVAINKDPEAPIFQVADYGIVADLFKVVPEMTEILKKK
B4: sp¦Q9NVP1¦DDX18_HUMAN (protein, UniProt Q9NVP1 1-670, looked up)
ATP-dependent RNA helicase …: MSHLPMKLLRKKIEKRNLKLRQRNLKFQGASNLTLSETQNGDVSEETMGSRKVKKSKQKPMNVGLSETQNGGMSQEAVGNIKVTKSPQKSTVLTNGEAAMQSSNSESKKKKKKKRKMVNDAEPDTKKAKTENKGKSEEESAETTKETENNVEKPDNDEDESEVPSLPLGLTGAFEDTSFASLCNLVNENTLKAIKEMGFTNMTEIQHKSIRPLLEGRDLLAAAKTGSGKTLAFLIPAVELIVKLRFMPRNGTGVLILSPTRELAMQTFGVLKELMTHHVHTYGLIMGGSNRSAEAQKLGNGINIIVATPGRLLDHMQNTPGFMYKNLQCLVIDEADRILDVGFEEELKQIIKLLPTRRQTMLFSATQTRKVEDLARISLKKEPLYVGVDDDKANATVDGLEQGYVVCPSEKRFLLLFTFLKKNRKKKLMVFFSSCMSVKYHYELLNYIDLPVLAIHGKQKQNKRTTTFFQFCNADSGTLLCTDVAARGLDIPEVDWIVQYDPPDDPKEYIHRVGRTARGLNGRGHALLILRPEELGFLRYLKQSKVPLSEFDFSWSKISDIQSQLEKLIEKNYFLHKSAQEAYKSYIRAYDSHSLKQIFNVNNLNLPQVALSFGFKVPPFVDLNVNSNEGKQKKRGGGGGFGYQKTKKVEKSKIFKHISKKSSDSRQFSH
B5: sp¦Q9HAV0¦GBB4_HUMAN (protein, UniProt Q9HAV0 2-340, looked up)
Guanine nucleotide-binding …: SELEQLRQEAEQLRNQIQDARKACNDATLVQITSNMDSVGRIQMRTRRTLRGHLAKIYAMHWGYDSRLLVSASQDGKLIIWDSYTTNKMHAIPLRSSWVMTCAYAPSGNYVACGGLDNICSIYNLKTREGNVRVSRELPGHTGYLSCCRFLDDSQIVTSSGDTTCALWDIETAQQTTTFTGHSGDVMSLSLSPDMRTFVSGACDASSKLWDIRDGMCRQSFTGHVSDINAVSFFPNGYAFATGSDDATCRLFDLRADQELLLYSHDNIICGITSVAFSKSGRLLLAGYDDFNCNVWDTLKGDRAGVLAGHDNRVSCLGVTDDGMAVATGSWDSFLRIWN
B6: sp¦P04844¦RPN2_HUMAN (protein, UniProt P04844 23-631, looked up)
Dolichyl-diphosphooligosacchar …: LTPTHYLTKHDVERLKASLDRPFTNLESAFYSIVGLSSLGAQVPDAKKACTYIRSNLDPSNVDSLFYAAQASQALSGCEISISNETKDLLLAAVSEDSSVTQIYHAVAALSGFGLPLASQEALSALTARLSKEETVLATVQALQTASHLSQQADLRSIVEEIEDLVARLDELGGVYLQFEEGLETTALFVAATYKLMDHVGTEPSIKEDQVIQLMNAIFSKKNFESLSEAFSVASAAAVLSHNRYHVPVVVVPEGSASDTHEQAILRLQVTNVLSQPLTQATVKLEHAKSVASRATVLQKTSFTPVGDVFELNFMNVKFSSGYYDFLVEVEGDNRYIANTVELRVKISTEVGITNVDLSTVDKDQSIAPKTTRVTYPAKAKGTFIADSHQNFALFFQLVDVNTGAELTPHQTFVRLHNQKTGQEVVFVAEPDNKNVYKFELDTSERKIEFDSASGTYTLYLIIGDATLKNPILWNVADVVIKFPEEEAPSTVLSQNLFTPKQEIQHLFREPEKRPPTVVSNTFTALILSPLLLLFALWIRIGANVSNFTFAPSTIIFHLGHAAMLGLMYVYWTQLNMFQTLKYLAILGSVTFLAGNRMLAQQAVKRTAH
B7: sp¦P22102¦PUR2_HUMAN (protein, UniProt P22102 2-1010, looked up)
Trifunctional purine …: AARVLIIGSGGREHTLAWKLAQSHHVKQVLVAPGNAGTACSEKISNTAISISDHTALAQFCKEKKIEFVVVGPEAPLAAGIVGNLRSAGVQCFGPTAEAAQLESSKRFAKEFMDRHGIPTAQWKAFTKPEEACSFILSADFPALVVKASGLAAGKGVIVAKSKEEACKAVQEIMQEKAFGAAGETIVIEELLDGEEVSCLCFTDGKTVAPMPPAQDHKRLLEGDGGPNTGGMGAYCPAPQVSNDLLLKIKDTVLQRTVDGMQQEGTPYTGILYAGIMLTKNGPKVLEFNCRFGDPECQVILPLLKSDLYEVIQSTLDGLLCTSLPVWLENHTALTVVMASKGYPGDYTKGVEITGFPEAQALGLEVFHAGTALKNGKVVTHGGRVLAVTAIRENLISALEEAKKGLAAIKFEGAIYRKDVGFRAIAFLQQPRSLTYKESGVDIAAGNMLVKKIQPLAKATSRSGCKVDLGGFAGLFDLKAAGFKDPLLASGTDGVGTKLKIAQLCNKHDTIGQDLVAMCVNDILAQGAEPLFFLDYFSCGKLDLSVTEAVVAGIAKACGKAGCALLGGETAEMPDMYPPGEYDLAGFAVGAMERDQKLPHLERITEGDVVVGIASSGLHSNGFSLVRKIVAKSSLQYSSPAPDGCGDQTLGDLLLTPTRIYSHSLLPVLRSGHVKAFAHITGGGLLENIPRVLPEKLGVDLDAQTWRIPRVFSWLQQEGHLSEEEMARTFNCGVGAVLVVSKEQTEQILRDIQQHKEEAWVIGSVVARAEGSPRVKVKNLIESMQINGSVLKNGSLTNHFSFEKKKARVAVLISGTGSNLQALIDSTREPNSSAQIDIVISNKAAVAGLDKAERAGIPTRVINHKLYKNRVEFDSAIDLVLEEFSIDIVCLAGFMRILSGPFVQKWNGKMLNIHPSLLPSFKGSNAHEQALETGVTVTGCTVHFVAEDVDAGQIILQEAVPVKRGDTVATLSERVKLAEHKIFPAALQLVASGTVQLGENGKICWVKEE
B8: sp¦Q9H2U2¦IPYR2_HUMAN (protein, UniProt Q9H2U2 33-334, looked up)
Inorganic pyrophosphatase 2, …: ALYHTEERGQPCSQNYRLFFKNVTGHYISPFHDIPLKVNSKEENGIPMKKARNDEYENLFNMIVEIPRWTNAKMEIATKEPMNPIKQYVKDGKLRYVANIFPYKGYIWNYGTLPQTWEDPHEKDKSTNCFGDNDPIDVCEIGSKILSCGEVIHVKILGILALIDEGETDWKLIAINANDPEASKFHDIDDVKKFKPGYLEATLNWFRLYKVPDGKPENQFAFNGEFKNKAFALEVIKSTHQCWKALLMKKCNGGAINCTNVQISDSPFRCTQEEARSLVESVSSSPNKESNEEEQVWHFLGK
B9: sp¦P30044¦PRDX5_HUMAN (protein, UniProt P30044 53-214, looked up)
Peroxiredoxin-5, mitochondrial: MAPIKVGDAIPAVEVFEGEPGNKVNLAELFKGKKGVLFGVPGAFTPGCSKTHLPGFVEQAEALKAKGVQVVACLSVNDAFVTGEWGRAHKAEGKVRLLADPTGAFGKETDLLLDDSLVSIFGNRRLKRFSMVVQDGIVKALNVEPDGTGLTCSLAPNIISQL
B10: sp¦Q12931¦TRAP1_HUMAN (protein, UniProt Q12931 60-704, looked up)
Heat shock protein 75 kDa, …: STQTAEDKEEPLHSIISSTESVQGSTSKHEFQAETKKLLDIVARSLYSEKEVFIRELISNASDALEKLRHKLVSDGQALPEMEIHLQTNAEKGTITIQDTGIGMTQEELVSNLGTIARSGSKAFLDALQNQAEASSKIIGQFGVGFYSAFMVADRVEVYSRSAAPGSLGYQWLSDGSGVFEIAEASGVRTGTKIIIHLKSDCKEFSSEARVRDVVTKYSNFVSFPLYLNGRRMNTLQAIWMMDPKDVREWQHEEFYRYVAQAHDKPRYTLHYKTDAPLNIRSIFYVPDMKPSMFDVSRELGSSVALYSRKVLIQTKATDILPKWLRFIRGVVDSEDIPLNLSRELLQESALIRKLRDVLQQRLIKFFIDQSKKDAEKYAKFFEDYGLFMREGIVTATEQEVKEDIAKLLRYESSALPSGQLTSLSEYASRMRAGTRNIYYLCAPNRHLAEHSPYYEAMKKKDTEVLFCFEQFDELTLLHLREFDKKKLISVETDIVVDHYKEEKFEDRSPAAECLSEKETEELMAWMRNVLGSRVTNVKVTLRLDTHPAMVTVLEMGAARHFLRMQQLAKTQEERAQLLQPTLEINPRHALIKKLNQLRASEPGLAQLLVDQIYENAMIAAGLVDDPRAMVGRLNELLVKALERH
B11: sp¦P00505¦AATM_HUMAN (protein, UniProt P00505 30-430, looked up)
Aspartate aminotransferase, …: SSWWTHVEMGPPDPILGVTEAFKRDTNSKKMNLGVGAYRDDNGKPYVLPSVRKAEAQIAAKNLDKEYLPIGGLAEFCKASAELALGENSEVLKSGRFVTVQTISGTGALRIGASFLQRFFKFSRDVFLPKPTWGNHTPIFRDAGMQLQGYRYYDPKTCGFDFTGAVEDISKIPEQSVLLLHACAHNPTGVDPRPEQWKEIATVVKKRNLFAFFDMAYQGFASGDGDKDAWAVRHFIEQGINVCLCQSYAKNMGLYGERVGAFTMVCKDADEAKRVESQLKILIRPMYSNPPLNGARIAAAILNTPDLRKQWLQEVKVMADRIIGMRTQLVSNLKKEGSTHNWQHITDQIGMFCFTGLKPEQVERLIKEFSIYMTKDGRISVAGVTSSNVGYLAHAIHQVTK

Test system: human HL60 cells
Assay: SWATH-MS proteomics, differential protein representation, akirin2 KO vs WT HL60 cells
Type: cell-based
Conditions: SWATH-MS, akirin2 KO vs WT HL60 cells; sheet "Under-represented in KO"
Summary of the method: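 Differential representation compares akirin2 KO with WT HL60 across three biological replicates, 5 µg digest each, acquired by data-independent SWATH on a 120-min gradient. Library built from combined IDA runs searched with Paragon; proteins accepted at 1% FDR, with total-area-sum normalization.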

Row | Molecule | Fold Change | Log (Fold Change)
1 | B1 | 0.7678 | -0.1147
2 | B2 | 0.7688 | -0.1142
3 | B3 | 0.7634 | -0.1173
4 | B4 | 0.7616 | -0.1182
5 | B5 | 0.7672 | -0.1151
6 | B6 | 0.7588 | -0.1199
7 | B7 | 0.7577 | -0.1205
8 | B8 | 0.76 | -0.1192
9 | B9 | 0.764 | -0.1169
10 | B10 | 0.7682 | -0.1145
11 | B11 | 0.7669 | -0.1152
